Measurements reported in patent US11306156.
Read-outs that look alike come from different tables or passages of the source.

Legend:
[1] = target: tissue factor (TF) antigen (human (from the antibody's name 'anti-human tissue factor'; not stated for the antigen lot in the assay)) (UniProt P13726); assay: SPR (ProteOn XPR36): Fab captured via His tag on anti-penta His surface, TF injected, 1:1 fit; batch C (+)
[2] = target: tissue factor (TF) antigen (human (from the antibody's name 'anti-human tissue factor'; not stated for the antigen lot in the assay)) (UniProt P13726); assay: SPR (ProteOn XPR36), Fab captured on anti-penta His, TF analyte; against wild-type D3H44 Fab; batch C by the KD cell's +
[3] = target: D3H44 Fab heavy chain L124E_L143D_K145T (H1 of LCCA sets 9214, 9217, 9216, 9219, 9220, 9225, 9228, 9229); assay: LCCA: H1 co-expressed with L1 and L2 (DNA 333:250:749 ng), His-tag capture on SPR chip, light chain tags detected with anti-HA/anti-FLAG; competitor L2 Q124E_V133G_S176D_T178E_T180E
[4] = target: D3H44 Fab heavy chain L124E_L143E_K145M (H1 of LCCA sets 9269, 9266, 9267, 9260, 9262, 9263); assay: as above
[5] = target: D3H44 Fab heavy chain L124E_L143E_K145M (H1 of LCCA sets 9269, 9266, 9267, 9260, 9262, 9263); assay: LCCA: H1 co-expressed with L1 and L2 (DNA 333:250:749 ng), His-tag capture on SPR chip, light chain tags detected with anti-HA/anti-FLAG; competitor L2 V133G_S176D_T178D_T180E
[6] = target: D3H44 Fab heavy chain L124E_L143D_K145T (H1 of LCCA sets 9214, 9217, 9216, 9219, 9220, 9225, 9228, 9229)
[7] = target: D3H44 Fab heavy chain L124E_L143E_K145M (H1 of LCCA sets 9269, 9266, 9267, 9260, 9262, 9263)
[8] = target: D3H44 Fab heavy chain L124E_L143D_K145T (H1 of LCCA sets 9214, 9217, 9216, 9219, 9220, 9225, 9228, 9229); remark: listed apart in the source
[9] = target: tissue factor (TF) antigen (UniProt P13726); assay: SPR (ProteOn XPR36), Fab captured on anti-penta-His surface, TF injected as analyte, 1:1 fit; the row's other values are marked * (estimated); reference wild-type D3H44 Fab
[10] = target: tissue factor (TF) antigen (UniProt P13726); assay: SPR (ProteOn XPR36), Fab captured on anti-penta-His surface, TF injected as analyte, 1:1 fit; marked * (estimated from a Fab that differs only in the L chain tag); reference wild-type D3H44 Fab
[11] = target: tissue factor (TF) antigen (UniProt P13726); assay: SPR (ProteOn XPR36), Fab captured on anti-penta-His surface, TF injected as analyte, 1:1 fit; marked * (estimated from a Fab that differs only in the L chain tag)
[12] = target: D3H44 light chain Q124E_Q160E_T180E (Kabat), N-terminal HA or FLAG tag; assay: LCCA co-expression, competing light chain m38, L1:L2 DNA 1:9 normalized to 1:1, SPR tag read-out
[13] = target: D3H44 light chain Q124E_Q160E_T180E (Kabat), N-terminal HA or FLAG tag; assay: LCCA co-expression, competing light chain m38, L1:L2 DNA 1:3 normalized to 1:1, SPR tag read-out
[14] = target: D3H44 light chain Q124R_Q160K_T178R (Kabat), N-terminal HA or FLAG tag; assay: LCCA co-expression, competing light chain m39, L1:L2 DNA 1:9 normalized to 1:1, SPR tag read-out
[15] = target: D3H44 light chain Q124R_Q160K_T178R (Kabat), N-terminal HA or FLAG tag; assay: LCCA co-expression, competing light chain m39, L1:L2 DNA 1:3 normalized to 1:1, SPR tag read-out
[16] = target: tissue factor (TF) antigen (UniProt P13726); assay: SPR as for KD; reference: wild-type D3H44 Fab
[17] = target: tissue factor (TF) antigen (UniProt P13726); assay: SPR, ProteOn XPR36; His-tagged Fab captured on anti-penta-His, TF injected; 1:1 fit; estimated (*) from the Fab that differs only in the L chain tag
[18] = target: tissue factor (TF) antigen (UniProt P13726); assay: SPR as for KD; reference: wild-type D3H44 Fab; estimated (*) from the Fab that differs only in the L chain tag
[19] = target: tissue factor (TF) antigen (UniProt P13726); assay: SPR, ProteOn XPR36; His-tagged Fab captured on anti-penta-His, TF injected; 1:1 fit
[20] = target: tissue factor (TF) (human) (UniProt P13726); assay: SPR (ProteOn), Fab captured on anti-penta His, TF analyte, 1:1 fit; estimated from Fab differing only in L chain tag
[21] = target: D3H44 light chain Q124R_Q160K_T178R (Kabat), N-terminal HA or FLAG tag; assay: LCCA co-expression, competing light chain m40, L1:L2 DNA 1:3 normalized to 1:1, SPR tag read-out
[22] = target: D3H44 light chain Q124E_T180E (Kabat), N-terminal HA or FLAG tag; assay: LCCA co-expression, competing light chain m38, L1:L2 DNA 1:3 normalized to 1:1, SPR tag read-out
[23] = target: D3H44 light chain Q124E_T178E (Kabat), N-terminal HA or FLAG tag; assay: as above
[24] = target: D3H44 light chain Q124R_Q160K_T178R (Kabat), N-terminal HA or FLAG tag; assay: LCCA co-expression, competing light chain m37, L1:L2 DNA 1:3 normalized to 1:1, SPR tag read-out
[25] = target: D3H44 Fab heavy chain L124R_D146N_Q179K (H1 of LCCA sets 9358, 9359, 9357, 9351, 9352, 9353, 9354, 9350); assay: LCCA: H1 co-expressed with L1 and L2 (DNA 333:250:749 ng), His-tag capture on SPR chip, light chain tags detected with anti-HA/anti-FLAG; competitor L1 V133G_S176D_T178E_T180E
[26] = target: D3H44 Fab heavy chain L124R_D146N_Q179K (H1 of LCCA sets 9358, 9359, 9357, 9351, 9352, 9353, 9354, 9350); assay: LCCA: H1 co-expressed with L1 and L2 (DNA 333:250:749 ng), His-tag capture on SPR chip, light chain tags detected with anti-HA/anti-FLAG; competitor L1 Q124E_V133G_S176D_T178E_T180E
[27] = target: tissue factor (TF) antigen (UniProt P13726); assay: SPR (ProteOn XPR36), Fab captured on anti-penta-His surface, TF as analyte; reference wild-type D3H44 Fab; estimated value from a Fab differing only in the L chain tag
[28] = target: tissue factor (TF) antigen (UniProt P13726); assay: SPR (ProteOn XPR36), Fab captured on anti-penta-His surface, TF as analyte, 1:1 fit; estimated value from a Fab differing only in the L chain tag (HA or FLAG)
[29] = target: tissue factor (TF) antigen (UniProt P13726); assay: SPR (ProteOn XPR36), Fab captured on anti-penta-His surface, TF as analyte; reference wild-type D3H44 Fab; batch C
[30] = target: tissue factor (TF) antigen (UniProt P13726); assay: SPR (ProteOn XPR36), Fab captured on anti-penta-His surface, TF as analyte, 1:1 fit; batch C (stored about 2 months at 4 C)
[31] = target: D3H44 light chain Q124E_T180E (Kabat), N-terminal HA or FLAG tag; assay: LCCA co-expression, competing light chain m36, L1:L2 DNA 1:9 normalized to 1:1, SPR tag read-out
[32] = target: D3H44 light chain S131K (Kabat), N-terminal HA or FLAG tag; assay: LCCA co-expression, competing light chain m37, L1:L2 DNA 1:9 normalized to 1:1, SPR tag read-out
[33] = target: D3H44 light chain Q124E_T180E (Kabat), N-terminal HA or FLAG tag; assay: LCCA co-expression, competing light chain m36, L1:L2 DNA 1:3 normalized to 1:1, SPR tag read-out
[34] = target: D3H44 light chain S131K (Kabat), N-terminal HA or FLAG tag; assay: LCCA co-expression, competing light chain m37, L1:L2 DNA 1:3 normalized to 1:1, SPR tag read-out

Work on “D3H44 Fab heterodimer, H1 Q39R_Q179K / L1 Q38E_Q124E_Q160E_T180E (H1L1 Fab of LCCA set 9827)” yielded a Kd [1] of 0.17 nM and a Change in median values of KD of h1l1 Fab heterodimer compared to wild type (-(log(KD design)-log(KD wt))) [2] of -0.03.

In the case of “D3H44 light chain Q124K_V133G_S176R_T178R”, the median LCCA performance normalized to a L1:L2 DNA ratio of 1:1 (ratio H1-L1:H1-L2), H1-L1 share (ratio part of 100) [3] is reported as 83, the median LCCA performance normalized to a L1:L2 DNA ratio of 1:1 (ratio H1-L1:H1-L2), H1-L1 share (ratio part of 100) [4] is reported as 84 and the median LCCA performance normalized to a L1:L2 DNA ratio of 1:1 (ratio H1-L1:H1-L2), H1-L1 share (ratio part of 100) [5] is reported as 62. It also gave a median LCCA performance normalized to a L1:L2 DNA ratio of 1:1 (ratio H1-L1:H1-L2), H1-L1 share (ratio part of 100) [6] of 76, a median LCCA performance normalized to a L1:L2 DNA ratio of 1:1 (ratio H1-L1:H1-L2), H1-L1 share (ratio part of 100) [7] of 87 and a median LCCA performance normalized to a L1:L2 DNA ratio of 1:1 (ratio H1-L1:H1-L2), H1-L1 share (ratio part of 100) [8] of 87.

In the case of “D3H44 H1L1 Fab heterodimer, H1 L124E_L143E_K145T, L1 Q124K_V133G_S176R_T178K”, the Change in median KD of h1l1 Fab heterodimer compared to wild type (-(log(KD design)-log(KD wt))) (log(KD) difference) [9] is reported as -0.12, the Change in median KD of h1l1 Fab heterodimer compared to wild type (-(log(KD design)-log(KD wt))) (log(KD) difference) [10] is reported as -0.12 and the Kd [11] is reported as 0.21 nM.

With “D3H44 Fab heavy chain L143E_K145T_Q179D (Kabat), C-terminal ABD2-His6 tag” the H1L1:H1L2 normalized median ratio [12] was 12 of 100, the H1L1:H1L2 normalized median ratio [13] was 16 of 100 and the H1L1:H1L2 normalized median ratio [14] was 88 of 100. The H1L1:H1L2 normalized median scalar value ln(r1/f1) [14] was 1.97, the H1L1:H1L2 normalized median ratio [15] was 84 of 100 and the H1L1:H1L2 normalized median scalar value ln(r1/f1) [15] was 1.68.

Work on “D3H44 Fab heterodimer, H1L1 of LCCA Sets # 9705, 9706, 9704 and 9703 (H1 L143E_K145T_S188L; L1 Q124R)” yielded a change in median KD compared to wild type, -(log(KD design)-log(KD wt)) [16] of -0.12, a Kd [17] of 0.21 nM and a change in median KD compared to wild type, -(log(KD design)-log(KD wt)) [18] of -0.12. It also gave a Kd [19] of 0.21 nM.

Work on “H1L1 Fab heterodimer of LCCA set 9585 (D3H44 Fab; H: L143E_K145T; L: Q124R)” yielded a Kd [20] of 0.28 nM and a change in KD vs wild type, -(log(KD design)-log(KD wt)) [20] of -0.25.

For “D3H44 Fab heavy chain L143E_K145T (Kabat), C-terminal ABD2-His6 tag”, the H1L1:H1L2 normalized median ratio [21] was 59 of 100, the H1L1:H1L2 normalized median scalar value ln(r1/f1) [21] was 0.36 and the H1L1:H1L2 normalized median ratio [22] was 41 of 100. For the same substance, the H1L1:H1L2 normalized median ratio [23] was 41 of 100, the H1L1:H1L2 normalized median ratio [13] was 28 of 100 and the H1L1:H1L2 normalized median ratio [24] was 59 of 100. For the same substance, the H1L1:H1L2 normalized median scalar value ln(r1/f1) [24] was 0.38, the H1L1:H1L2 normalized median ratio [15] was 72 of 100 and the H1L1:H1L2 normalized median scalar value ln(r1/f1) [15] was 0.96.

For “D3H44 light chain Q124K_V133G_Q160K_S176R”, the median LCCA performance normalized to a L1:L2 DNA ratio of 1:1 (ratio H1-L1:H1-L2), H1-L2 share (ratio part of 100) [25] was 26 and the median LCCA performance normalized to a L1:L2 DNA ratio of 1:1 (ratio H1-L1:H1-L2), H1-L2 share (ratio part of 100) [26] was 18.

Substance “D3H44 Fab heterodimer H1 L143D_K145T_Q179E / L1 T178R” has a Change in median values of KD of h1l1 Fab heterodimer compared to wild type (-(log(KD design)-log(KD wt))) [27] of -0.25 and a Kd [28] of 0.28 nM.

In the case of “D3H44 Fab heterodimer H1 L143E_K145T_Q179D / L1 T178R”, the Change in median values of KD of h1l1 Fab heterodimer compared to wild type (-(log(KD design)-log(KD wt))) [27] is reported as 0.17, the Change in median values of KD of h1l1 Fab heterodimer compared to wild type (-(log(KD design)-log(KD wt))) [29] is reported as 0.17 and the Kd [28] is reported as 0.11 nM. For the same substance, the Kd [30] was 0.11 nM.

In the case of “D3H44 Fab heavy chain Q179K (Kabat), C-terminal ABD2-His6 tag”, the H2L2:H2L1 normalized median ratio [31] is reported as 88 of 100, the H2L2:H2L1 normalized median ratio [12] is reported as 88 of 100 and the H2L2:H2L1 normalized median ratio [32] is reported as 12 of 100. The H2L2:H2L1 normalized median ratio [21] was 4 of 100, the H2L2:H2L1 normalized median ratio [33] was 98 of 100 and the H2L2:H2L1 normalized median ratio [22] was 96 of 100. The H2L2:H2L1 normalized median ratio [23] was 96 of 100, the H2L2:H2L1 normalized median ratio [13] was 87 of 100 and the H2L2:H2L1 normalized median ratio [14] was 12 of 100. For the same substance, the H2L2:H2L1 normalized median ratio [34] was 2 of 100, the H2L2:H2L1 normalized median ratio [24] was 4 of 100 and the H2L2:H2L1 normalized median ratio [15] was 13 of 100.
